Results as given in article PMC2362362 (British Journal of Cancer, 1999).

B1: Ki-4 single-chain variable fragment (scFv), soluble (scFv, V domains shown)
VH: QVKLQESGTELAKPGAAVKMSCKASGYTFTDYWMHWVKQRPGQGLEWIGYINPNTAYTDYNQKFKDKATLTADKSSSTAYMQLRSLTSEDSAVYYCAKKTTQTTWGFPFWGQGTTVTVSS
VL: DIVLTQSPKSMAMSVGERVTLSCKASENVDSFVSWYQQKPGQSPKLLIYGASNRYTGVPDRFAGSGSGRDFTLTISSVQAEDLADYHCGQNYRYPLTFGAGTKLEIK
notes: also called Ki-4 scFv; His-tagged Ki-4 scFv
B2: anti-CD30 monoclonal antibody Ki-4 (antibody, V domains shown)
VH: B1 VH
VL: B1 VL
notes: also called Ki-4 mAb; Ki-4 whole antibody; copies: 2 + 2

Molecular target: T1, extracellular domain of the human CD30 receptor fused to the hinge, CH2 and CH3 domain of human IgG1 … (Homo sapiens (Human)., UniProt P28908)
T1 construct: also called recombinant, human sCD30-Fc protein
T1 sequence (P28908 19-385): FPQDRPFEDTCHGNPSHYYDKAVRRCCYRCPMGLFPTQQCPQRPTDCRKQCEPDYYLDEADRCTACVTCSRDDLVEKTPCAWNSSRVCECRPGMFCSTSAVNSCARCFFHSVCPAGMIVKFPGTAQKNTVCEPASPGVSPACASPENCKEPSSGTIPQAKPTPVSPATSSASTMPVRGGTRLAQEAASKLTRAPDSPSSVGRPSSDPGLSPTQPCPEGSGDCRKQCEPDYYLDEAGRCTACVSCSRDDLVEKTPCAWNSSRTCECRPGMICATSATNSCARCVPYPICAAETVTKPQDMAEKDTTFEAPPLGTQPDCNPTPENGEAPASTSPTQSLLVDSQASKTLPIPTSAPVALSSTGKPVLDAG
Experiment: SPR; BIAcore 2000; sCD30-Fc covalently coupled to a CM-5 sensorchip (450 RU, 'low density'); surface saturated by multiple injections of antibody or fragment, flow 20 ul/min; dissociation rates by curve fitting (monovalent for the scFv, bivalent for the mAb)
Details: both partners purified

Binder | koff [s⁻¹] | t1/2 of the antibody-antigen complex (=ln2/koff) [h]
B1 | 0.00018 | 1.07
B2 | 0.00012 | 1.6
